These results are taken from paper PMC8071376.

The test system of data set [1] is RelB (untagged, in RelB:RelE-His6 complex);RelE-His6 (Streptococcus pneumoniae R6;Streptococcus pneumoniae R6). Description: DNase I footprinting. Conditions: DNase I footprinting: 40 mM Tris-HCl pH 7.9, 6 mM MgCl2, 1 mM CaCl2, 10 mM NaCl plus 100 mM NaCl, 1 mM DTT, 10% glycerol, 10 ug/mL heparin or 50 ng ….
The test system of data set [2] is His6-RelB (Streptococcus pneumoniae R6). Description: DNase I footprinting. Conditions: DNase I footprinting: 40 mM Tris-HCl pH 7.9, 6 mM MgCl2, 1 mM CaCl2, 10 mM NaCl plus 100 mM NaCl, 1 mM DTT, 10% glycerol, 10 ug/mL heparin or 50 ng ….

As for PrelBE 199-bp promoter fragment, the binding was found to be 1 µM in data set [1] and 10 µM in data set [2].
